The values that follow come from FireProtDB (doi:10.1038/nsb0196-54).

Sequences and labels used below:
B1: Regulatory protein rop, P03051 (parent)
chain: MTKQEKTALNMARFIRSQTLTLLEKLNELDADEQADICESLHDHADELYRSCLARFGDDGENL

This data set covers variants of B1. The note with it: Escherichia coli, pH 7, Thermal, CD, Sodium phosphate 10 mM, NaCl 350 mM, structure 1ROP, whole UniProt chain shown; for ddG of mutation (higher = less stable): 69 °C.

On to D30W, for which the “ddG of mutation (higher = less stable)” value stood at 0.4 kcal/mol; the Tm stood at 65.9 °C; the “change of melting temperature, mutant - wild type (higher = more stable)” value (“change of melting temperature, mutant” below) was -2.8 °C.

For the variant D30R, the “ddG of mutation (higher = less stable)” value is -0.8 kcal/mol.

In the case of D30P, the “ddG of mutation (higher = less stable)” value came to 1.6 kcal/mol; the Tm is 58.9 °C; the “change of melting temperature, mutant” value was -9.8 °C.

With D30E, the “ddG of mutation (higher = less stable)” value is -1 kcal/mol; the Tm worked out at 74.9 °C; the “change of melting temperature, mutant” value turned out to be 6.2 °C.

For D30K, the “ddG of mutation (higher = less stable)” value was -0.9 kcal/mol; the Tm is 74.6 °C; the “change of melting temperature, mutant” value is 5.9 °C.

With D30L, the “ddG of mutation (higher = less stable)” value was 0.1 kcal/mol; the Tm came to 68.4 °C; the “change of melting temperature, mutant” value was -0.3 °C.

Take D30G: the “ddG of mutation (higher = less stable)” value was -2 kcal/mol; the Tm was determined as 80.3 °C; the “change of melting temperature, mutant” value was found to be 11.6 °C.

D30Q: the “ddG of mutation (higher = less stable)” value was -1.8 kcal/mol; the Tm came to 79.1 °C; the “change of melting temperature, mutant” value turned out to be 10.4 °C.

Turning to D30H, the “ddG of mutation (higher = less stable)” value was -0.9 kcal/mol; the Tm came to 74.5 °C; the “change of melting temperature, mutant” value turned out to be 5.8 °C.

For D30M, the “ddG of mutation (higher = less stable)” value was -0.6 kcal/mol; the Tm came to 72.7 °C; the “change of melting temperature, mutant” value worked out at 4 °C.

For D30N, the “ddG of mutation (higher = less stable)” value was -0.8 kcal/mol; the Tm was determined as 73.8 °C; the “change of melting temperature, mutant” value is 5.1 °C.

Consider D30V, for which the “ddG of mutation (higher = less stable)” value turned out to be 0.4 kcal/mol; the Tm stood at 66.6 °C; the “change of melting temperature, mutant” value was -2.1 °C.

As to D30F, the “ddG of mutation (higher = less stable)” value is 0.1 kcal/mol; the midpoint of thermal melting (Tm) stood at 68.3 °C; the “change of melting temperature, mutant” value is -0.4 °C.

Take D30A: the “ddG of mutation (higher = less stable)” value was -0.3 kcal/mol; the Tm stood at 71.2 °C; the “change of melting temperature, mutant” value amounted to 2.5 °C.

For D30I, the “ddG of mutation (higher = less stable)” value amounted to 0.8 kcal/mol; the Tm turned out to be 63.4 °C; the “change of melting temperature, mutant” value was -5.3 °C.

Regarding D30C, the “ddG of mutation (higher = less stable)” value was -0.8 kcal/mol; the Tm amounted to 74 °C; the “change of melting temperature, mutant” value worked out at 5.3 °C.

With D30S, the “ddG of mutation (higher = less stable)” value is -1 kcal/mol; the Tm stood at 74.7 °C; the “change of melting temperature, mutant” value is 6 °C.

Consider D30T, for which the “ddG of mutation (higher = less stable)” value was 0.4 kcal/mol; the Tm worked out at 66.6 °C; the “change of melting temperature, mutant” value is -2.1 °C.

In the case of D30Y, the “ddG of mutation (higher = less stable)” value is -0.2 kcal/mol; the Tm was 70.4 °C; the “change of melting temperature, mutant” value stood at 1.7 °C.

The term Tm denotes the temperature at the midpoint of the melting transition.
